Assays:
[1] = target: dynamic microtubules grown from purified bovine brain tubulin (bovine) (UniProt Q6B856); test: optical trap rupture force assay; kinetochores purified with benzonase, held on beads by anti-penta-His antibody via Dsn1-6His-3M3DK, attached to the tip of dynamic microtubules grown from coverslip-anchored seeds; BRB80 growth buffer, 23 °C; force raised at 0.25 pN/s until detachment
[2] = target: dynamic microtubules grown from purified bovine brain tubulin (bovine) (UniProt Q6B856); test: optical trap rupture force assay; kinetochores purified without benzonase, held on beads by anti-penta-His antibody via Dsn1-6His-3M3DK, attached to the tip of dynamic microtubules grown from coverslip-anchored seeds; BRB80 growth buffer, 23 °C; force raised at 0.25 pN/s until detachment

Row | median rupture force [1] [pN] | median rupture force [2] [pN] | Substance
1 | 6.4 | 7.5 | K. marxianus kinetochores purified via Dsn1-6His-3M3DK (from UniProt A0ABX6F0Z3 1-547) (complex)
2 | – | 7.2 | S. cerevisiae kinetochores purified via Dsn1-6His-3M3DK (from UniProt P40568 1-576) (complex)

— paper PMC12226651
